According to patent US5663064, “Ribozymes with RNA protein binding site” (University of Vermont):

Legend:
[1] = target: T1, R17 coat protein (R17cp) (bacteriophage R17, UniProt P69170 P69170:1-129); assay: filter; null mutant negative control; no specific complex in gel shift; conditions: chain copies: 2; hairpin
Protocol: Association constants were determined by filter-binding assays (Carey et al., 1983 Biochemistry 22, 2601). Trace amount of labeled RNA (15–32 fmoles) was heat denatured and renatured in 500 μl of T.M.S buffer (40 mM Tris-HCl pH 8, 12 mM MgCl_2 and 2 mM spermidine) or TMK buffer (40 mM Tris-Acetate pH 8, 10 mM Mg.Acetate, 80 mM KCl). The reaction was initiated by adding R17 coat protein at various concentrations (0.01 nM to 1 μM). After at least 20 minutes of incubation at the desired temperature, 450 μl of the reaction mixture was filtered through pre-soaked nitrocellulose filter (Millipore-HAWP 024–0,45 μM). The amount of complex retained by the filter was determined by liquid scintillation counting. The amount of input RNA was determined by spotting a 20 μl aliquot of the reaction mixture on a filter. The fraction bound by the filter was plotted as a function of protein concentration. As previously described (Carey et al., supra; Schneider et al., 1992 J. Mol. Biol. 228, 862), the maximum amount of fraction complexed varied between 40 and 100% depending on the RNA preparation. Results were normalized to 100% of retention at saturation for purposes of calculations and to compare different experiments. […] Standard error was calculated from the fit of the observed curve to the theoretical one (reported by the sigmaplot software). […]

[2] = target: T1, R17 coat protein (R17cp); assay: filter; also gel shift; TMS or TMK buffer, 25 or 37 C; Kd said to agree with earlier studies but value not given; conditions: chain copies: 2; hairpin with bulged A
Protocol: The reaction was initiated by adding R17 coat protein at various concentrations (0.01 nM to 1 μM). After at least 20 minutes of incubation at the desired temperature, 450 μl of the reaction mixture was filtered through pre-soaked nitrocellulose filter (Millipore-HAWP 024–0,45 μM). The amount of complex retained by the filter was determined by liquid scintillation counting. The amount of input RNA was determined by spotting a 20 μl aliquot of the reaction mixture on a filter. The fraction bound by the filter was plotted as a function of protein concentration. As previously described (Carey et al., supra; Schneider et al., 1992 J. Mol. Biol. 228, 862), the maximum amount of fraction complexed varied between 40 and 100% depending on the RNA preparation. Results were normalized to 100% of retention at saturation for purposes of calculations and to compare different experiments. […] Dissociation constant (Kd) values were then obtained from a non-linear least-square fit using sigmaplot software (Jandel Scientific). Standard error was calculated from the fit of the observed curve to the theoretical one (reported by the sigmaplot software).
A filter binding assay (Carey, et al., 1983 Biochemistry 22, 2601) is used to confirm the results from gel-shift assay described above. Referring to FIG. 9, the R17cp binds to HpR17 as well as it binds to its genuine binding site (R17bs). […]

T1 sequence (P69170 whole entry, one chain of several): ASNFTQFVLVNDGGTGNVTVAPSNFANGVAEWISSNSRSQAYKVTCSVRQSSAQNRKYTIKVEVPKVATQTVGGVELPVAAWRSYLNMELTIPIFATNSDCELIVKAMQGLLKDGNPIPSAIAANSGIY

Binder	binding result [1]	binding result [2]
GAAACAUGGGAUCACCCAUGUUU (ssRNA) [R17deltaA8]	no binding	–
GAAACAUGAGGAUCACCCAUGUUU (ssRNA) [R17bs]	–	binds
